Measured values: patent publication US20090074657A1 (IMMUNE PHARMACEUTICALS, published 2009)

B1: murine monoclonal anti-ferritin antibody AMB8LK (antibody, V domains shown)
VH: QVQLKESGPGLVAPSQSLSITCTVSGFSLSRYSVHWVRQPPGKGLEWLGTIWGGGSTDYNSVLKSRLSISKDNSKSQVLLKVNSLQTDDTAIYYCASGPYYYTMDYWGQGTSVTVSS
VL: QIVLTQSPAILSASLGEEITLTCSASSSVTFMHWYQQKSGTSPKLLIYTTSNLASGVPSRFSGSGSGTFYSLTISSVEAEDAADYYCHQWSSYPTFGSGTKLEIKR
notes: also called unconjugated AMB8LK; native antibody
B2: Bz-DTPA-AMB8LK (antibody, V domains shown)
VH: B1 VH
VL: B1 VL
modifications: about 3 Bz-DTPA chelates per antibody (pSCN-Bz-DTPA conjugation; sites not stated); 111In or 90Y in the radioimmunoassays
notes: also called DTPA conjugate; 111In-DTPA-AMB8LK
B3: Bz-CHX-A″-DTPA-AMB8LK (antibody, V domains shown)
VH: B1 VH
VL: B1 VL
modifications: about 3 Bz-CHX-A″-DTPA chelates per antibody (pSCN-Bz-CHX-A″-DTPA conjugation; sites not stated); 111In or 90Y in the radioimmunoassays
notes: also called CHX-DTPA-AMB8LK; CHX-DTPA
B4: Bz-DOTA-AMB8LK (antibody, V domains shown)
VH: B1 VH
VL: B1 VL
modifications: about 3.2 Bz-DOTA chelates per antibody (pSCN-Bz-DOTA conjugation; sites not stated); 111In or 90Y in the radioimmunoassays
notes: also called DOTA-conjugate; 111In-DOTA-AMB8LK

Tests used:
[1] = biological target: human ferritin (human, UniProt P02794 2-183; P02792 2-175, limits assumed); test: method not stated
[2] = biological target: T1, human liver ferritin (Calbiochem) (human, UniProt P02794 2-183; P02792 2-175); test: solid-phase radioimmunoassay, ferritin immobilised at 5 µg/ml on tubes, 111In-labelled conjugate
T1 construct: Natural ferritin is a multimer of acidic (H) and basic (L) subunits; Adsorbed on plates or tubes in the assays; also called pure ferritin
Procedure: (§1) A solid-phase radioimmunoassay was performed using ¹¹¹In- and ⁹⁰y-labelled antibodies. Maxisorp tunes (Nunc) were incubated overnight at 4° C. with 1.5 to 10 μg/ml ferritin in PBS. After washing, they were blocked by PBS-0.5% BSA for 2 hours at room temperature. 6.25×10³, 12.5×10³ and 25×10³CPM (200 μl) of the antibodies were added in the coated tubes. The activity in each tube was counted in the gamma counter, then the tubes were washed three times with PBS-0.4% Tween-20 and the remaining activity counted. The difference between activities with and without the radiolabelled-antibody solutions indicated the percentage of bound-antibody. For evaluation of non specific binding to ferritin, a 100-fold excess of unconjugated antibody was added to the most concentrated radiolabelled-antibody solution. Non specific binding of the antibody was assessed on uncoated tubes. […] These binding percentages were calculated taking into account small differences in the labelling efficiencies of the three compounds on the day of the experiment.
(§2) ^aFerritin was immobilised at 5 μg/ml on tubes, then the indium or yttrium conjugated antibodies were incubated at three dilutions ([…]) Results are expressed as the mean of the percentage of bound antibody after washing the tubes. Non specific binding of the antibodies were less than 2%. ^bFive serial dilutions of fixed and permeabilized CAPAN-1 cells were incubated with the three radiolabelled compounds. After washing, the activity bound to the cells was counted in a gamma counter. Results were analysed using the GraphPad software; linear regression analysis of (Total CPM/Bound CPM) = f(cells dilution) were very accurate with r² > 0.99 for all three conjugates.

[3] = biological target: T1, human liver ferritin (Calbiochem); test: solid-phase radioimmunoassay, ferritin immobilised at 5 µg/ml on tubes, 90Y-labelled conjugate
Procedure: as §1, §2

[4] = biological target: T2, ferritin in fixed and permeabilized CAPAN-1 cells (human, UniProt P02794 1-183; P02792 2-175); test: Lindmo assay on fixed and permeabilized CAPAN-1 cells, 111In-labelled conjugate
T2 construct: whole, on cells; Endogenous ferritin, over-expressed by CAPAN-1 cells; The cells were fixed and permeabilized, so the ferritin reached is inside the cells; also called cells expressing ferritin
Procedure: Immunoreactivity of the immunoconjugates was assessed on cells expressing ferritin using the method described by Lindmo et al Determination of the immunoreactive fraction of radiolabeled monoclonal antibodies by linear extrapolation to binding at infinite antigen excess. J Immunol Methods 1984; 72 (1):77-89.
The CAPAN-1 cells are a relevant model for human pancreatic cancer (Kyriazis et al Human pancreatic adenocarcinoma line Capan-1 in tissue culture and the nude mouse:morphologic, biologic, and biochemical characteristics. Am J Pathol 1982; 106(2):250-60.). This cell line was established from a liver metastasis of a human pancreatic ductal adenocarcinoma, is tumorigenic and metastatic in nude mice and over-expresses ferritin. […] CAPAN-1 cells were grown in RPMI, 10% foetal calf serum and 2 mM L-glutamine. Cells were harvested at 70-85% confluence using trypsin, washed and resuspended in PBS-0.5% BSA. They were then fixed and permeabilized using the Intrastain kit (rako) following the manufacturer's instructions. Cells were diluted in PBS-0.5% BSA at concentrations ranging from 1.25×10⁵ to 12×10⁶ cells/ml and 500 μl of these suspensions were incubated with a fixed amount of ¹¹¹In-labeled-Ab (250 μl, 50 ng/ml, approximately 100,000CPM) for 2 hours at room temperature under agitation. Suspensions were centrifuged at 5,000×rpm for 5 minutes, the cells were washed with PBS-BSA and the activity in the pellets was counted. Nonspecific binding was determined by co-incubation of the radiolabelled-antibody with a 1.000-fold excess of cold antibody. The total radioactive counts added to each tube were divided by the cell-bound counts after subtraction of the non-specifically bound counts. These values were plotted against the reciprocal of cell dilution. After linear regression analysis, the immunoreactive fraction was obtained from the reciprocal of the intercept on the y-axis.

T2 sequence (P02794 whole entry, chain 1 of 2): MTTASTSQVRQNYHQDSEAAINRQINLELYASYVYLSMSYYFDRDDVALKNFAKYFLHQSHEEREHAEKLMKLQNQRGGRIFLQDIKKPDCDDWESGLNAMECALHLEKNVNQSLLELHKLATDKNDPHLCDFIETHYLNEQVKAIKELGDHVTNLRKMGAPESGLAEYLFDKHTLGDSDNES
T2 sequence (P02792 2-175, chain 2 of 2): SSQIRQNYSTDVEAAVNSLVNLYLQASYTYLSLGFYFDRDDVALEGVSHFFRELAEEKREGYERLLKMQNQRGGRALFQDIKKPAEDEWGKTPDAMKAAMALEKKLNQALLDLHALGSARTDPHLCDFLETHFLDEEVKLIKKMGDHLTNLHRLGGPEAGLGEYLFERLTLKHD
T1 sequence (P02794 2-183 limits assumed, chain 1 of 2): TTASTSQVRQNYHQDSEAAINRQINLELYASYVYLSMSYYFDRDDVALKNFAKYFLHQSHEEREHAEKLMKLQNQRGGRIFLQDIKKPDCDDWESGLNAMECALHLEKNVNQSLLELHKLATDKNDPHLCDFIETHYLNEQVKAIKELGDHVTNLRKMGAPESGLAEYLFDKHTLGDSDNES
T1 sequence (P02792 2-175 limits assumed, chain 2 of 2): as the sequence (P02792 2-175, chain 2 of 2) above
Chain of human ferritin (P02794 2-183 limits assumed, chain 1 of 2): as the sequence (P02794 2-183 limits assumed, chain 1 of 2) above
Chain of human ferritin (P02792 2-175 limits assumed, chain 2 of 2): as the sequence (P02792 2-175, chain 2 of 2) above

Binder | Kd [1] | immunoreactivity (percentage of bound antibody) [2] | immunoreactivity (percentage of bound antibody) [3] | immunoreactivity (immunoreactive fraction) [4]
B1 | 5.1 nM |  |  | 
B2 |  | 87% | 100% | 52%
B3 |  | 74.8% | 98.9% | 43%
B4 |  | 76.8% | 73.2% | 24%
